Experiments:
[1] = target: N-terminus Huntingtin exon 1 fragment harboring pathological (109Q) polyglutamine repeats, fused with eCFP or eYFP; test: FRET or BRET; frequency-domain FLIM-FRET (phasor trajectory) in living Neuro2a cells co-expressing 109QHtt-eCFP and 109QHtt-eYFP; aggregated fraction; no peptide
[2] = target: N-terminus Huntingtin exon 1 fragment harboring pathological (109Q) polyglutamine repeats, fused with eCFP or eYFP; test: FRET or BRET; frequency-domain FLIM-FRET (phasor trajectory) in living Neuro2a cells co-expressing eCFP (donor) and eYFP (acceptor) fusions; soluble fraction; no peptide
[3] = target: N-terminus Huntingtin exon 1 fragment harboring pathological (109Q) polyglutamine repeats, fused with eCFP or eYFP; test: FRET or BRET; frequency-domain FLIM-FRET (phasor trajectory) in living Neuro2a cells co-expressing 109QHtt-eCFP and 109QHtt-eYFP; soluble fraction; cells treated with 8R10Q
[4] = target: N-terminus Huntingtin exon 1 fragment harboring pathological (109Q) polyglutamine repeats, fused with eCFP or eYFP; test: FRET or BRET; frequency-domain FLIM-FRET (phasor trajectory) in living Neuro2a cells co-expressing 109QHtt-eCFP and 109QHtt-eYFP; aggregated fraction; cells treated with 8R10Q

N-terminus Huntingtin exon 1 fragment harboring pathological (109Q) polyglutamine repeats, fused with eCFP or eYFP, sequence (P42858 whole entry, change not shown, the tested form may be a part): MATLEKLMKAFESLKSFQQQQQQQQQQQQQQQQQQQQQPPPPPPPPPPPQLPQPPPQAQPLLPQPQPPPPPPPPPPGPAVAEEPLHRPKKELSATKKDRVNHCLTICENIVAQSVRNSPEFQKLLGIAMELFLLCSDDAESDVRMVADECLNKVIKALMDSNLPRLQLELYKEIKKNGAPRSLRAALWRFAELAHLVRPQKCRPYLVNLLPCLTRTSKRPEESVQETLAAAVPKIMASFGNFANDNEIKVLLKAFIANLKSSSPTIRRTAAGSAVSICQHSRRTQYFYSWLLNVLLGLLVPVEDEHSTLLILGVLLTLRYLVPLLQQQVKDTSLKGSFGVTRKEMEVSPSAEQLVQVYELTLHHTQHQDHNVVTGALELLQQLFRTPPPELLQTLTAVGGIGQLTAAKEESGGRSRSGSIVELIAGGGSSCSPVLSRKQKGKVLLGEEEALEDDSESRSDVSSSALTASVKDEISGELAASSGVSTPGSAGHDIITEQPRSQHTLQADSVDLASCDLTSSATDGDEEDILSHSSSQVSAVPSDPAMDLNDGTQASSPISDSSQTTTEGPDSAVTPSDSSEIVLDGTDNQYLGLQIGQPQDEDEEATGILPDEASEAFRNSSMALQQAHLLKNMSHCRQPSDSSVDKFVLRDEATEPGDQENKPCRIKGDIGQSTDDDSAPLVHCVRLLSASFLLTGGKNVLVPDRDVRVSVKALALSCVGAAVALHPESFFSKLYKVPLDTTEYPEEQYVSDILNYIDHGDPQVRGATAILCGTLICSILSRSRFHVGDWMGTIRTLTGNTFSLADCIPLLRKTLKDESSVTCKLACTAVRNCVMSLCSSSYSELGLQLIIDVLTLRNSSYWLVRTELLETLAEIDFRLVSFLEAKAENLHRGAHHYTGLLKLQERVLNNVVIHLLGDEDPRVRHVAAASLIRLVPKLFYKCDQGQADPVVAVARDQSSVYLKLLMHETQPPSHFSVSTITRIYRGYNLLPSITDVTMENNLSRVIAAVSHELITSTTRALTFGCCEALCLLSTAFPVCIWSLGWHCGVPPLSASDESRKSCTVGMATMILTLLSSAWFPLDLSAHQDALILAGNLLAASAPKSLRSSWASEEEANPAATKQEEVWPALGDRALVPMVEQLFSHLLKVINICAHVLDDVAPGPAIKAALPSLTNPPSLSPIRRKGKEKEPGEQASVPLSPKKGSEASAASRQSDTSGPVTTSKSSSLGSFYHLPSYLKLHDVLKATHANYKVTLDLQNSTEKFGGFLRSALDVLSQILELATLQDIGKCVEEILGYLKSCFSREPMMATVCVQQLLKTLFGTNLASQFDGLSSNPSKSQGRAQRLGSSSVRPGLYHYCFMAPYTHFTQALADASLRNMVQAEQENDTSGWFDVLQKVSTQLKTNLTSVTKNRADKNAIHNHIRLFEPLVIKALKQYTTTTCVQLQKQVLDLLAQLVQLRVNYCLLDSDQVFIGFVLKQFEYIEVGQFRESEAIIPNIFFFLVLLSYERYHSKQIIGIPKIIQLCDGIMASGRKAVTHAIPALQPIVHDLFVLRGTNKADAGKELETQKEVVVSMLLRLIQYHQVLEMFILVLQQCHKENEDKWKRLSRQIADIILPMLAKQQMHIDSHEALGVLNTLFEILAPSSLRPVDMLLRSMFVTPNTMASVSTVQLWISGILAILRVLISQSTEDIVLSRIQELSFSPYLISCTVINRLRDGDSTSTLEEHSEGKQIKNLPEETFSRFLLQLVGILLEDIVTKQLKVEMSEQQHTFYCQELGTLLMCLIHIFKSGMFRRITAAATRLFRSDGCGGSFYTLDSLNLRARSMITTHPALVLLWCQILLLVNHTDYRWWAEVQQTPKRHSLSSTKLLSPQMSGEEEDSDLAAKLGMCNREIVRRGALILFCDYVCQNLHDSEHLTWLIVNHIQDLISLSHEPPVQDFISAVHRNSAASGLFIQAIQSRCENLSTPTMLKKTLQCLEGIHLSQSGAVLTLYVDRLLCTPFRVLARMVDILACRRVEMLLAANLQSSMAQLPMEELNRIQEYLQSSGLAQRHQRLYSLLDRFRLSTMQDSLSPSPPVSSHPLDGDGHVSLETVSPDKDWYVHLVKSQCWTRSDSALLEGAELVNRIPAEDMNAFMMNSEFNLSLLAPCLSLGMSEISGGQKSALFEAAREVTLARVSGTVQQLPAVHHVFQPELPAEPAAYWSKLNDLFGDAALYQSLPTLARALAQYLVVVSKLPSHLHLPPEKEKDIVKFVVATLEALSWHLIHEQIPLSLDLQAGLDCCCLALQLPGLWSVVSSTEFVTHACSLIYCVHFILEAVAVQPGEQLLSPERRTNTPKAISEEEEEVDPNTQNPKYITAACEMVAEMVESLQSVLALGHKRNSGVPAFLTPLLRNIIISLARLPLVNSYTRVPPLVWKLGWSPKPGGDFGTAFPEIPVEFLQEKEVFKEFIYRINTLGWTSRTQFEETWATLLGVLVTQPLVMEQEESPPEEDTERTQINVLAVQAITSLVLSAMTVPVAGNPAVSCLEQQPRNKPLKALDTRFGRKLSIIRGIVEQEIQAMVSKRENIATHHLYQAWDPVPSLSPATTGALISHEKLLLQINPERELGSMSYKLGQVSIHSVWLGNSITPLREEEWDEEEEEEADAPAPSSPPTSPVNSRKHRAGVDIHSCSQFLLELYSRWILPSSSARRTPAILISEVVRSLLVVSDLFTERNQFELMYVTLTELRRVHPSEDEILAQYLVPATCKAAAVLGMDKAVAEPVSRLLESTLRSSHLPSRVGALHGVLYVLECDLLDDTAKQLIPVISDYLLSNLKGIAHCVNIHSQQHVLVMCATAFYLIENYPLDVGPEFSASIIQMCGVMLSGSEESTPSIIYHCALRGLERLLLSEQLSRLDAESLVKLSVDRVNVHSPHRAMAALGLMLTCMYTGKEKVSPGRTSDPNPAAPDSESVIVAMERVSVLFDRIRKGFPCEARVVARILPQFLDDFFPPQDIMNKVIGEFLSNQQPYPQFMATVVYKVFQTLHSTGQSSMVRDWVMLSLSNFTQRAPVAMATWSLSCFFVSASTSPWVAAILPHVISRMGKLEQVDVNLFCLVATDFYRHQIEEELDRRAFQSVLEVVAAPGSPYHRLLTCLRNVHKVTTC

FRET efficiency [1]: 41.8%
FRET efficiency [2]: 8.7%
FRET efficiency with 8R10Q [3]: 4.5%
FRET efficiency with 8R10Q [4]: 16.4%
Substance: N-terminus Huntingtin exon 1 fragment harboring pathological (109Q) polyglutamine repeats, fused with eCFP or eYFP (domain or fragment)

Source: PMC6974936
